The values that follow come from a protein production outcome set (Wang et al. 2014).

The series can be described thus: label from the status in PepcDB records.

“MKILKNSYESYIIAEFFKYFLITFLFFFFVFFINQILFFMRILLQNYVPFFKAFIFIIYSLPMVIALSPPFASLISVILTIHKFKLHNEILAFRSIGISIFDLLVPFFKLGIVIAFVSFISNDILLPLGSIGRLKIFNEIKEEVPHLVLKPYSSKQYGDLIFVSGEKSENGYKNVTFFDNTGLKGFDRIFMAKNLDIRKENFQVYFILNDVLSIALTDSESGFYDYFYADKMKYSIDQVTFSDSFLLNYVTPSQMSMRDVIKLIKKQNNLIADSNIKNNLEGDFLSLNFSNLYLNYLYNQNYYVDESYVFENLNYMYNLNLNFKPYQDRSMKQNLALFNLEFYQKISLPLSVLFFIFLAFSMGMYSNRKYSIILELVISIIVCVFYWVMFIGGKVYTVQYAPSPIIVTILPNLILIIAGAILFLRLLKK”: the protein production result is “failed”.

“MKILLLGGNGFIGRRLAARLIEAGHELSAPSRVELDLARPNQDWAAWVDGVDAVANLAGAFRQGRAGGFEAIHHAGPLRLAALARAHGVRRWVQLSALGAAAHAGAPFLSSKGRGDAALLDCGMEAVVARPSLIYGADGASSRLLLRLARLPFWLLPEGGGQRIQPVAAADVAEGLQRLIEGDARGVIDFVGAAEASLADYLRQLRRLQGVGGAAWLCPVPAWLAAGLAAACGCWPGSLLNRDSLRMLRQGSTADPAAFAALLGRQPLSFRQFGEVA”: the protein production result is “failed”.

As for “MKILQILSRLYVADLNPALEFYEELLETPVAMRFEIPQTGVELAQISTILLIAGSEEALKPFRNTQATFLVDSLDKFKTFLEENGAEIIRGPSKVPTGRNMTVRHSDGSVIEYVEHSKIE”, the protein production entry was “not failed”.

On to “MKILVFGGTRFFGKKLVERLVSEGHDVTIGTRGKTEDNFGDTVKRVVLNRESRDALFQLAKEDWDVIYDNICFSPKEALYAVDAFKGKVKRYIYTSSLSVYSQKGRALVEADFNPEHYEIVIGDKEDFDYGEGKRLAEAVFFQKASFPVVAVRFPIVLGLDDYTKRLHFHINHIKNHQEIGISNGQAEIGFITSDEAAHFLEWVGVESDLTGPVNATSNGTYALNGFIKMLEEKIGELALVEEVTDDVDDSPFGIEKTYYLDNAKATEAGFVFNDLKVWLPALVTDILKENLEHHHHHH”, for which the protein production result was “failed”.

For the sequence “MKIMTKTLNRTTLGLALGLASSQLLAAGFALNEQSISGMGTGFAGRSSSADDASTVFGNPAGMSRIKREQISVGAAAVIAKTDIDNGRGTFGGSNDGDMVPVVGVPMGYYVKPIDDHWAFGLGVYVPFGLVTDYEKGFAGRYWGDKSHVQIVTFQPTVSYAFNDKVSIGFGPTINRIDGELTSATLNAATPGRNDGKVKIEGDDTAIGFNAGILVQATDTTRLGLTYHSKVDYKLKGKTKIEGSGFGPFGGQKYDASLDISTPESVDFSITQQLDENWTVYAGSTWTRWSRLQDITVNNDGVPALLGGSAGPIGTITEEQNWHDTWAHAIGASYKVNKEWTLRTGFSVDQSPTNNVNRSPRIPTGDRKIISFGAGWSPTDDLTIDVAYSYLREDETKIRDSSATKGSYSADYRNTAHGLGTSVTYRF”, the protein production entry is reported as “failed”.

Consider “MKISEVLVKVGDGVHTLLLDRPIVRDGRKFDAPLLWMVVLMTAFGLLMIYSASVYLASKEGGDQFFYLTRQAGFVVAGLIASGFLWFLCRMRTWRRLVPWIFALSGLLLVAVLIAGREINGATRWIPLGPLNFQPTELFKLAVILYLASLFTRREEVLRSMESLGWQSIWRGTANLIMSATNPQARRETLEMYGRFRAIILPIMLVAFGLVLIMVQPDFGSFVVITVITVGMLFLAGLPWKYFFVLVGSVLGGMVLMITAAPYRVQRVVAFLDPWKDPQGAGYQLTHSLMAIGRGEWFGMGLGASLSKRGFLPEAHTDFIFAIIAEEFGFFGMCVLIFCYGWLVVRAFSIGKQSRDLGLTFNAYIASGIGIWIGIQSFFNIGVNIGALPTKGLTLPLMSYGGSSVFFMLISMMLLLRIDYENRQKMRGYRVE”, for which the protein production entry was “failed”.

For “MKISLVTVTFNSAKTLCDTIHSVLSQSYTNIEYIIVDGLSNDETVTLIKEYEPLFQGRLKWISEKDKGLYDAMNKGIRMSTGDIVGIINSDDFYHRGDVLEKVAESFEAGETEAIYGDVRFVNPDNLDRTVRYYSSKRFVPSLFRFGFMPAHPTFFTYRKYFDQFGYYKTNYKIAADYELLVRFLYVHRLKSKYLPLDFMKMRTGGASTASIKSNILLNKEIVRACKENGIWTCYPLLLLKYLVKVFELIFIKKLEHHHHHH”, the protein production result was “not failed”.

For “MKISPSLMCMDLLKFKEQIEFIDSHADYFHIDIMDGHFVPNLTLSPFFVSQVKKLATKPLDCHLMVTRPQDYIAQLARAGADFITLHPETINGQAFRLIDEIRRHDMKVGLILNPETPVEAMKYYIHKADKITVMTVDPGFAGQPFIPEMLDKLAELKAWREREGLEYEIEVDGSCNQATYEKLMAAGADVFIVGTSGLFNHAENIDEAWRIMTAQILAAKSEVQPHAKTA”, the protein production entry is on record as “failed”.

With “MKITRQIFIYFSFLMAVALFFSCKTTEKAVKSPVTEETKKAEKTGKKSPREEFNDKLTHLSKKGDLEGILKLIDESDPELTKDFKIQYLKLSILISMRKTKEAETFADELSKAYPNNTEILYAQVMLAQAENNTQKKNQYLKKILAINPKDSRALTEQGLDFYSAKKYNDARRKFIEAYKADPKCTEALIGLGRINYLEGKLDQAEANLTAVLEQEPNNSTALAELARIKSETNRMYQALQDINRAAELEPNNPSHWNDIGSYNLTIGRKEEAKKAYDKVIELTPDSYVAYIYRAGINDELGYKEDALADYIKVCNLYPPYYFALEGAGILLWEKGDWLNAGTAFLKALNKAPGSYQYALLYAISLYKQNKKPDAKKFMQNYLKSINRTEKENEYFLCRLFIDFAGDSELINRATAETDMVKKGRLFFYLGEFYNLTKKYTLAEKCYVQVMSIENPAFFEYRFAKKAMDEFNSSNGK”, the protein production result was “failed”.

For “MKITVIVPTYRRTKDLTRCLESLEKQSRPADEVLVVVRDTDVETWQFLETIAPHSLPLHTTTVRVPGVVAAMNAGLDIAQGDIIAFTDDDAAPHSNWLAQIETHFLAHEQIAGVGGRDWVYHGDRLEDGTCPVVGQVHWFGRVIGNHHIGIGKPREVDVLKGVNMSFRRSAVHGLRFDQRMLGTGAQVHFEVAFCLALKRAGWKLIYDPQIGVNHYPAQRFDEDQRQSFNHLAVTNAVHNETLALLEHLSPTQQLTFLLWATLVGTRDSMGLIQFLRFLPSDRALAGQKLLAAWYGRWRGWRTWQSSIRFAQIKN”, the protein production entry is recorded as “failed”.

Turning to “MKIVGIYLAAGKSRRTGPGLHKLYLPTGNTLLGNKALHTSLSSNLSDVIVVSNQPSWLLHYTQVERVHILSCEKSCLGQSYSLHCGLEKAESMNADGVVVMLADQPFITVKLLNSLIDSYEHLPQLDYVAASFQGIPQPPILFSKGIFPSLKKLKGDQGARSIFFDKSFQGKITVYSDAKLFYDVNTIEDYNVIKNSLLLEHHHHHH”, the protein production result is given as “failed”.

For “MKIVIAPDSYKESLSALEVATAIEQGFREIWPDADYLKLPLADGGEGTVEAMVEATAGRIVHVEVTGPLGHRVNAFYGLSGDARSAFIEMAAASGLEQVPPAQRDPLKTTSWGTGELIRHALDAGVEHIIIGIGGSATNDGGAGMVQALGARLRDAQGNDIAQGGIGLETLASIDISGLDKRLSACHIEVACDVTNPLTGKEGASAVFGPQKGATPEMIERLDTALTRYAHLIARDLHVDVLDLAGGGAAGGMGAALYAFCGAQLRRGIEIVTDALHLEACLADADLVITGEGRIDSQTIHGKVPIGVANIAKRYNKPVIGIAGSLTADVSVVHEHGLDAVFSVIYTICTLEDALKNASENVRMTARNVAATLKAGQQLR”, the protein production result was “not failed”.

For “MKIVIIGGFLGGGKTTVLNHLLAESLKESLKPAVIMNEFGKMSVDGALVSEDIPLSELTEGCICCAMKADVSEQLHQLYLKEQPDIVFIECSGIAEPVSVLDACLTPILAPFTTITHMIGVIDASMYKHIKSFPKDIQGLFYEQLAYCSVLFVNKIDSADVETTSKLLKDLEVINPEADIQVGMHGSVTLPISVRQMTATSDNKHESLHKTINHQFVQSPVTCTKAEFIKRLACLPSHIYRLKGFMTFEDTTHTYLIQFTQGQYELTPVAFSKKVPEYLVLIGKGISKEDYQCLEQLEHHHHHH”, the protein production result is “failed”.

As for “MKKASEYYYYLGDICWRKEKTDSAKYYFMEGIKTDETYAMNYVGIGIITMKSNATEGQRSFDKALQMTSQKNSQVLNAIGEYYILEADKAELPKGIALLKKSTEIDAKNAMSWILLGDAYGKQAEGSKQAESYGKAANLFHSVPLLKMKYGKMYAAARNKDLSIKYYNEGLAADPTYGPIYRELGDLYNRFRQYDLAIQNYKKYLTYIDSNDDVEFRYADFLFKNNNYAEAIEVFNKLEAKKYNSPYIYNRRAVCYYELEHHHHHH”, the protein production result was “failed”.

“MKKESLFRYAREHFNSEPEYLWSNLPDYAVLRHDHGDKWFGIVMSVRGSTLGLKTDDKVDILDVKVRPEYIGSLRQKEGVLPAYHMNKEHWISVILSGPLSTKEIHELLADSHELTSGLEHHHHHH”: the protein production entry is “not failed”.

For the sequence “MKKFAIMGLGTFGVRMLDELIKIGAEVIIIEQNKDLIEMYKSKASSAIVLEEISELSVRKILPSKVDTVIVDFGRKVELSVISTTILKNLGIANIVVRAQSDEHGRLLKTVGATRIIYPDSEAAKRTTPILAADLLLKFMPISKNLALAEVGVEARYVGKSLAESNIRKDMGVNIIARRKKESEDFIFMDDPEYKFEEDDVLLVVASEEHIYNFSGGKISLKNNLKKDGEIKPSIFKNLFSSKKV”, the protein production entry is recorded as “failed”.

Regarding “MKKFGLGVYLLLLGILGGSLIILGAIVAPIVFKASSVLPELHLTPFESGKLMAQIFVRFNYVLGAIGFVVLLYEIISFIYYKRSLVYLILGVAIGALCLLFVFYYTPYILNAQKAGEAALQSAEFARSHAQSEWLFKELFVLVCALFFWRLLGKNVL”, the protein production entry is “failed”.

Consider “MKKFIILLSLLILLPLTAASKPLIPIMKTLFTDVTGTVPDAEEIAHKAELFRQQTGIAPFIVVLPDINNEASLRQNGKAMLAHASSSLSDVKGSVLLLFTTREPRLIMITNGQVESGLDDKHLGLLIENHTLAYLNADLWYQGINNALAVLQAQILKQSTPPLTYYPHPGQQHENAPPGSTNTLGFIAWAATFILFSRIFYYTTRFIYALKFAVAMTIANMGYQALCLYIDNSFAITRISPLWAGLIGVCTFIAALLLTSKR”, for which the protein production result is recorded as “failed”.

As for “MKKFLAIITLCLLFFSFTIGCERASLNRIGKDVYYMQIKGEGTIEKVDGRNLRNYTLPAYDEDGVKKQITFRSTKKENDHKLNKYAFLRLYVDQDDNSKNEISSIEVKSYEEIQKADLPEKVKDKFTIKLEHHHHHH”, the protein production entry is “not failed”.

Take “MKKFVTRRLGRKKRRDTEIVLPTKDDDCREEHGSEVSCMEDVEEMLQELSMKGEFVFGSFWRQGDSAANDFDFGNSQYEIANYKDHRSLSLLITQDVLLER”: the protein production result is recorded as “failed”.

As for “MKKGFVSIIIPSYNEASNIKLIYESLRNEFQSIDYDYEIYYINDGSTDRTLEEIKKLAEKSEHVKYISFSRNFGKEAAILAGFQHARGDAVVVMDADLQHPTYLLHDFIKGYEEGYDQVVAQRNRKGDNPVRSYLSSLYYRFINNAVEVDLRDGVGDFRLLSRKAVNAMLKLSEGNRFSKGLFCWIGFDQKIVYYENVERKNGKSKWSFRHLLNYGIDGIVSFNNRPLRMCFYAGIFILFLSLIYIAATFIRILKYGVIVPGYFTIISAVLFLGGVQLLSLGIIGEYIGRIYYETKKRPHYLIQEANIAHGETHENRES”, the protein production entry was “failed”.

On to “MKKGRGYVYKLEYHLIWATKYRHQVLVDEVADGLKDILRDIATQNGLELVALEVMPDYVHLLLGATPQHVIPDFVKALKGASARRMFSAFPHLKQPHWGGNLWNPSYCVLTVSEHTRAQIQQYIENQHAAE”, for which the protein production entry was “not failed”.

For the sequence “MKKIAFGCDHVGFILKHEIVAHLVERGVEVIDKGTWSSERTDYPHYASQVALAVAGGEVDGGILICGTGVGISIAANKFAGIRAVVCSEPYSAQLSRQHNDTNVLAFGSRVVGLELAKMIVDAWLGAQYEGGRHQQRVEAITAIEQRRN”, the protein production entry is “not failed”.
